In patent US20220372164A1 (CITY OF HOPE, published 2022):
Each block holds one binder with its values, some of them ahead of it.

Key:
truncated EGFR (EGFRt) [1] = target: T1, truncated EGFR (EGFRt) (human, UniProt P00533 334-668); assay: flow cytometry, titration of biotinylated soluble human FcγR1 + SA-PE on T cells
T1 construct: Expressed alone on T cells as the control without a CAR; also called huEGFRt; EGFRt marker

truncated EGFR (EGFRt) [2] = target: T1, truncated EGFR (EGFRt); assay: flow cytometry, biotinylated soluble FcγR + SA-PE on T cells
Experimental: Antibodies and Flow Cytometry. Fluorochrome-conjugated isotype controls, anti-CD3, anti-CD4, anti-CD8, anti-CD45 and streptavidin were obtained from BD Biosciences (San Jose, Calif.). Biotinylated anti-Fc was purchased from Jackson ImmunoResearch Laboratories, Inc. (West Grove, Pa.). Generation of biotinylated-cetuximab was previously described (Wang et al. 2011a). […] The percentage of immunofluorescent cells were analyzed by a FACScalibur system (BD Biosciences), and the percentage of cells in a region of analysis were calculated using FCS Express V3 (De Novo Software, CA, USA).
To determine the efficacy of the different mutations/deletion in the CAR to affect FcR binding, flow cytometric analysis was performed using various human and murine biotinylated soluble FcγRs, and PE-streptavidin (SA-PE) to detect the binding of the FcγRs to the different cell populations.

B1: biotinylated soluble human Fc gamma receptor 1 (receptor, UniProt P12314 16-288, looked up)
chain: QVDTTKAVITLQPPWVSVFQEETVTLHCEVLHLPGSSSTQWFLNGTATQTSTPSYRITSASVNDSGEYRCQRGLSGRSDPIQLEIHRGWLLLQVSSRVFTEGEPLALRCHAWKDKLVYNVLYYRNGKAFKFFHWNSNLTILKTNISHNGTYHCSGMGKHRYTSAGISVTVKELFPAPVLNASVTSPLLEGNLVTLSCETKLLLQRPGLQLYFSFYMGSKTLRGRNTSSEYQILTARREDSGLYWCEAATEDGNVLKRSPELELQVLGLQLPTP
modifications: biotinylated
notes: Bought reagent; also called huFcγR1; human FcγR1
binding result (truncated EGFR (EGFRt) [1]): no binding

B2: biotinylated soluble murine FcγR2b (receptor, UniProt P08101 30-207, looked up)
chain: THDLPKAVVKLEPPWIQVLKEDTVTLTCEGTHNPGNSSTQWFHNGRSIRSQVQASYTFKATVNDSGEYRCQMEQTRLSDPVDLGVISDWLLLQTPQLVFLEGETITLRCHSWRNKLLNRISFFHNEKSVRYHHYSSNFSIPKANHSHSGDYYCKGSLGRTLHQSKPVTITVQGPKSSR
modifications: biotinylated
notes: Bought reagent; also called muFcγR2b; Mu R2b
binding result (truncated EGFR (EGFRt) [2]): no binding

The remaining lines, values ahead:

binding result (truncated EGFR (EGFRt) [2]): no binding
B3: biotinylated soluble murine FcγR1 (receptor, UniProt P26151 25-297, looked up)
chain: EVVNATKAVITLQPPWVSIFQKENVTLWCEGPHLPGDSSTQWFINGTAVQISTPSYSIPEASFQDSGEYRCQIGSSMPSDPVQLQIHNDWLLLQASRRVLTEGEPLALRCHGWKNKLVYNVVFYRNGKSFQFSSDSEVAILKTNLSHSGIYHCSGTGRHRYTSAGVSITVKELFTTPVLRASVSSPFPEGSLVTLNCETNLLLQRPGLQLHFSFYVGSKILEYRNTSSEYHIARAEREDAGFYWCEVATEDSSVLKRSPELELQVLGPQSSAP
modifications: biotinylated
notes: Bought reagent; also called muFcγR1; Mu FcγR1

binding result (truncated EGFR (EGFRt) [2]): no binding
B4: biotinylated soluble human FcγR2b (receptor, UniProt P31994 43-217, looked up)
chain: TPAAPPKAVLKLEPQWINVLQEDSVTLTCRGTHSPESDSIQWFHNGNLIPTHTQPSYRFKANNNDSGEYTCQTGQTSLSDPVHLTVLSEWLVLQTPHLEFQEGETIVLRCHSWKDKPLVKVTFFQNGKSKKFSRSDPNFSIPQANHSHSGDYHCTGNIGYTLYSSKPVTITVQAP
modifications: biotinylated
notes: Bought reagent; also called huFcγR2b; Hu R2b

binding result (truncated EGFR (EGFRt) [2]): no binding
B5: biotinylated soluble human FcγR2a (receptor, UniProt P12318 34-218, looked up)
chain: QAAAPPKAVLKLEPPWINVLQEDSVTLTCQGARSPESDSIQWFHNGNLIPTHTQPSYRFKANNNDSGEYTCQTGQTSLSDPVHLTVLSEWLVLQTPHLEFQEGETIMLRCHSWKDKPLVKVTFFQNGKSQKFSHLDPTFSIPQANHSHSGDYHCTGNIGYTLFSSKPVTITVQVPSMGSSSPMGI
modifications: biotinylated
notes: Bought reagent; also called huFcγR2a; Hu R2a
